How the values were obtained:
4H3070-bH = biological target: T1, 4H3070-bH; assay: two-hybrid library CCNG1;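 also: natural log of median RNA to DNA barcode read ratio; higher means stronger binding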
T1 chain: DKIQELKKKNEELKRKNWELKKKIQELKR

4H145-bH = biological target: T2, 4H145-bH; assay: two-hybrid library CCNG1;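 also: natural log of median RNA to DNA barcode read ratio; higher means stronger binding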
T2 chain: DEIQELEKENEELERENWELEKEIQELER

4H2691-bH = biological target: T3, 4H2691-bH; assay: two-hybrid library CCNG1;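 also: natural log of median RNA to DNA barcode read ratio; higher means stronger binding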
T3 chain: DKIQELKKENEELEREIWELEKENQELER

4H342-bH = biological target: T4, 4H342-bH; assay: two-hybrid library CCNG1;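 also: natural log of median RNA to DNA barcode read ratio; higher means stronger binding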
T4 chain: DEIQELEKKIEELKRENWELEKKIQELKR

4H496-bH = biological target: T5, 4H496-bH; assay: two-hybrid library CCNG1;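 also: natural log of median RNA to DNA barcode read ratio; higher means stronger binding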
T5 chain: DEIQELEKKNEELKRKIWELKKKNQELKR

4H1347-bH = biological target: T6, 4H1347-bH; assay: two-hybrid library CCNG1;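 also: natural log of median RNA to DNA barcode read ratio; higher means stronger binding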
T6 chain: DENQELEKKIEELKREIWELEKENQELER

4H3632-bH = biological target: T7, 4H3632-bH; assay: two-hybrid library CCNG1
T7 chain: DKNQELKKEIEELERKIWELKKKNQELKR

4H2619-bH = biological target: T8, 4H2619-bH; assay: two-hybrid library CCNG1
T8 chain: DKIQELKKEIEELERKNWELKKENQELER

P3bHq = biological target: T9, P3bHq; assay: two-hybrid library CCNG1
T9 chain: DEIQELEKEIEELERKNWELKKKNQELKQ

P4bHq = biological target: T10, P4bHq; assay: two-hybrid library CCNG1
T10 chain: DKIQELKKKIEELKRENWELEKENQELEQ

P8bHq = biological target: T11, P8bHq; assay: two-hybrid library CCNG1
T11 chain: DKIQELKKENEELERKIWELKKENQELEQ

P9bHq = biological target: T12, P9bHq; assay: two-hybrid library CCNG1
T12 chain: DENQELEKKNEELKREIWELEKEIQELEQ

P6bHq = biological target: T13, P6bHq; assay: two-hybrid library CCNG1
T13 chain: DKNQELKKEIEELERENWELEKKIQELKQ

P5bHq = biological target: T14, P5bHq; assay: two-hybrid library CCNG1
T14 chain: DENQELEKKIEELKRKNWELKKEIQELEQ

P12bHq = biological target: T15, P12bHq; assay: two-hybrid library CCNG1
T15 chain: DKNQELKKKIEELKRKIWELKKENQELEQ

P11bHq = biological target: T16, P11bHq; assay: two-hybrid library CCNG1
T16 chain: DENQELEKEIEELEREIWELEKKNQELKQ

P7bHq = biological target: T17, P7bHq; assay: two-hybrid library CCNG1
T17 chain: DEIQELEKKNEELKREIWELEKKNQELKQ

P10bHq = biological target: T18, P10bHq; assay: two-hybrid library CCNG1
T18 chain: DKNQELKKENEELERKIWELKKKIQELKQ

P1bHq = biological target: T19, P1bHq; assay: two-hybrid library CCNG1
T19 chain: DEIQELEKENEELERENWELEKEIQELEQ

4H1347-bN = biological target: T20, 4H1347-bN; assay: two-hybrid library CCNG1
T20 chain: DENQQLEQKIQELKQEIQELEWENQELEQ

4H145-bN = biological target: T21, 4H145-bN; assay: two-hybrid library CCNG1
T21 chain: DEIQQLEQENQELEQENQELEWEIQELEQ

4H496-bN = biological target: T22, 4H496-bN; assay: two-hybrid library CCNG1
T22 chain: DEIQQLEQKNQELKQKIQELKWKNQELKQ

4H2619-bN = biological target: T23, 4H2619-bN; assay: two-hybrid library CCNG1
T23 chain: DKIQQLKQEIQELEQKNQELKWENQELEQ

4H3070-bN = biological target: T24, 4H3070-bN; assay: two-hybrid library CCNG1
T24 chain: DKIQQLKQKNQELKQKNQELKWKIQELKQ

4H2691-bN = biological target: T25, 4H2691-bN; assay: two-hybrid library CCNG1
T25 chain: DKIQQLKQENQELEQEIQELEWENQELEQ

4H342-bN = biological target: T26, 4H342-bN; assay: two-hybrid library CCNG1
T26 chain: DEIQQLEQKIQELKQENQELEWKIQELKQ

4H3632-bN = biological target: T27, 4H3632-bN; assay: two-hybrid library CCNG1
T27 chain: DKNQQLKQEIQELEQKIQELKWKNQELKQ

4H264-bN = biological target: T28, 4H264-bN; assay: two-hybrid library CCNG1
T28 chain: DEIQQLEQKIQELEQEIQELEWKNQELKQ

4H2760-bN = biological target: T29, 4H2760-bN; assay: two-hybrid library CCNG1
T29 chain: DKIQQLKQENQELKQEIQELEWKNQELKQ

4H2859-bN = biological target: T30, 4H2859-bN; assay: two-hybrid library CCNG1
T30 chain: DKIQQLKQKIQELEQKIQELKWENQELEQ

4H932-bN = biological target: T31, 4H932-bN; assay: two-hybrid library CCNG1
T31 chain: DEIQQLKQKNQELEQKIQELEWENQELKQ

4H3381-bN = biological target: T32, 4H3381-bN; assay: two-hybrid library CCNG1
T32 chain: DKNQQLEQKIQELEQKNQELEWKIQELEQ

4H56-bN = biological target: T33, 4H56-bN; assay: two-hybrid library CCNG1
T33 chain: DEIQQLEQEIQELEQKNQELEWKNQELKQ

4H2931-bN = biological target: T34, 4H2931-bN; assay: two-hybrid library CCNG1
T34 chain: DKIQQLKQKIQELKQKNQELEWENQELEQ

4H3297-bN = biological target: T35, 4H3297-bN; assay: two-hybrid library CCNG1
T35 chain: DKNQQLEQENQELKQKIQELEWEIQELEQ

P10A-bN = biological target: T36, P10A-bN; assay: two-hybrid library CCNG1
T36 chain: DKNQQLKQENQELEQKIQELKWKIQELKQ

4H570-bA = biological target: T37, 4H570-bA; assay: two-hybrid library CCNG1
T37 chain: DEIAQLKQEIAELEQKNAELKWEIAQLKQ

4H349-bN = biological target: T38, 4H349-bN; assay: two-hybrid library CCNG1
T38 chain: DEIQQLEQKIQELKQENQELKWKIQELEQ

4H796-bN = biological target: T39, 4H796-bN; assay: two-hybrid library CCNG1
T39 chain: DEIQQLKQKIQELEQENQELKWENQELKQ

4H949-bN = biological target: T40, 4H949-bN; assay: two-hybrid library CCNG1
T40 chain: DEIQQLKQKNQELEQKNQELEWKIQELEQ

4H3364-bN = biological target: T41, 4H3364-bN; assay: two-hybrid library CCNG1
T41 chain: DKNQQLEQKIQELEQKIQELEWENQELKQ

4H730-bN = biological target: T42, 4H730-bN; assay: two-hybrid library CCNG1
T42 chain: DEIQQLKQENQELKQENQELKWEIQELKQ

4H3041-bN = biological target: T43, 4H3041-bN; assay: two-hybrid library CCNG1
T43 chain: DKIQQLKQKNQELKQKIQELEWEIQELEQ

Core_NNIN-es_KEKE = biological target: T44, Core_NNIN-es_KEKE; assay: two-hybrid library CCmax; conditions: mean of both orientations
T44 chain: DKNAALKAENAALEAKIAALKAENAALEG

O1-bN = biological target: T45, O1-bN; assay: two-hybrid library CCNG1
T45 chain: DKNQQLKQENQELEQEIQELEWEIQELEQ

O12-bN = biological target: T46, O12-bN; assay: two-hybrid library CCNG1
T46 chain: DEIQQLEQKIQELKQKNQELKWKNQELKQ

O10-bN = biological target: T47, O10-bN; assay: two-hybrid library CCNG1
T47 chain: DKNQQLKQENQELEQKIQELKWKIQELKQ

O14-bN = biological target: T48, O14-bN; assay: two-hybrid library CCNG1
T48 chain: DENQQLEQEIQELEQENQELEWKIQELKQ

O11-bN = biological target: T49, O11-bN; assay: two-hybrid library CCNG1
T49 chain: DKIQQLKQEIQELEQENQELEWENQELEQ

O16-bN = biological target: T50, O16-bN; assay: two-hybrid library CCNG1
T50 chain: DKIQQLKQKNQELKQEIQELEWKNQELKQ

O15-bN = biological target: T51, O15-bN; assay: two-hybrid library CCNG1
T51 chain: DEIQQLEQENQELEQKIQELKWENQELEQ

O5-bN = biological target: T52, O5-bN; assay: two-hybrid library CCNG1
T52 chain: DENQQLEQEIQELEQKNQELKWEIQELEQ

O2-bN = biological target: T53, O2-bN; assay: two-hybrid library CCNG1
T53 chain: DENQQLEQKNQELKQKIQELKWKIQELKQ

O3-bN = biological target: T54, O3-bN; assay: two-hybrid library CCNG1
T54 chain: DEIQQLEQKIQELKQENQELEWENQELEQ

O9-bN = biological target: T55, O9-bN; assay: two-hybrid library CCNG1
T55 chain: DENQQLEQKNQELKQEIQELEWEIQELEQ

O4-bN = biological target: T56, O4-bN; assay: two-hybrid library CCNG1
T56 chain: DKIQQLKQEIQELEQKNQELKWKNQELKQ

O13-bN = biological target: T57, O13-bN; assay: two-hybrid library CCNG1
T57 chain: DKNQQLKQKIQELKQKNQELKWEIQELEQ

O7-bN = biological target: T58, O7-bN; assay: two-hybrid library CCNG1
T58 chain: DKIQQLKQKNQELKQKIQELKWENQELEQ

O8-bN = biological target: T59, O8-bN; assay: two-hybrid library CCNG1
T59 chain: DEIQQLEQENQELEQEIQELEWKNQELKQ

O6-bN = biological target: T60, O6-bN; assay: two-hybrid library CCNG1
T60 chain: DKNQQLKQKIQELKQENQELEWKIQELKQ

Core_IINI-es_KKEK = biological target: T61, Core_IINI-es_KKEK; assay: two-hybrid library CCmax; conditions: mean of both orientations
T61 chain: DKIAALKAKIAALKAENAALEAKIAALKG

Core_NINN-es_KKKE = biological target: T62, Core_NINN-es_KKKE; assay: two-hybrid library CCmax; conditions: mean of both orientations
T62 chain: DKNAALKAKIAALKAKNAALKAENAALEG

Core_IINI-es_KKEE = biological target: T63, Core_IINI-es_KKEE; assay: two-hybrid library CCmax; conditions: mean of both orientations
T63 chain: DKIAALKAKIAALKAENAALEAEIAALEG

Core_NIIN-es_KKEE = biological target: T64, Core_NIIN-es_KKEE; assay: two-hybrid library CCmax; conditions: mean of both orientations
T64 chain: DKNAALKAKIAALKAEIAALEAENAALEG

DENQELEKKIEELKREIWELEKENQELER [4H1347-bH]
interaction score (4H3070-bH): -0.395
interaction score (4H145-bH): -0.368
interaction score (4H2691-bH): -0.275
interaction score (4H342-bH): -0.391
interaction score (4H496-bH): -0.415
interaction score (4H1347-bH): 0.364
interaction score (4H3632-bH): 1.71
interaction score (4H2619-bH): -0.987

DKNQELKKENEELERKIWELKKKIQELKQ [P10bHq]
interaction score (P3bHq): -0.901
interaction score (P4bHq): 0.266
interaction score (P8bHq): -0.382
interaction score (P9bHq): 1
interaction score (P6bHq): 1.3
interaction score (P5bHq): -0.0841
interaction score (P12bHq): 1.08
interaction score (P11bHq): -1.18
interaction score (P7bHq): 1.54
interaction score (P10bHq): -0.704
interaction score (P1bHq): 1.43

DENQQLEQKIQELKQEIQELEWENQELEQ [4H1347-bN]
interaction score (4H1347-bN): -0.341
interaction score (4H145-bN): -0.341
interaction score (4H496-bN): -0.299
interaction score (4H2619-bN): -1.17
interaction score (4H3070-bN): 0.122
interaction score (4H2691-bN): -0.113
interaction score (4H342-bN): -0.286
interaction score (4H3632-bN): 1.6

DEIQQLEQKIQELEQEIQELEWKNQELKQ [4H264-bN]
interaction score (4H264-bN): -0.816
interaction score (4H2760-bN): -0.23
interaction score (4H2859-bN): 1.92
interaction score (4H932-bN): -0.218
interaction score (4H3381-bN): 0.605
interaction score (4H56-bN): 0.479
interaction score (4H2931-bN): 1.31
interaction score (4H3297-bN): 0.44
interaction score (P10A-bN): -2.47
interaction score (4H570-bA): -2.9
interaction score (4H349-bN): 0.605
interaction score (4H796-bN): -0.162
interaction score (4H949-bN): -0.338
interaction score (4H3364-bN): 0.517
interaction score (4H730-bN): 0.137
interaction score (4H3041-bN): 1.54

DENAALEAKNAALKAEIAALEAKNAALKG [Core_NNIN-es_EKEK]
interaction score (Core_NNIN-es_KEKE): 1.67

DKNQQLKQENQELEQEIQELEWEIQELEQ [O1-bN]
interaction score (O1-bN): -0.57
interaction score (O12-bN): -1.46
interaction score (O10-bN): -0.61
interaction score (O14-bN): -1.24
interaction score (O11-bN): -1.2
interaction score (O16-bN): -1.9
interaction score (O15-bN): -1.32
interaction score (O5-bN): -1.54
interaction score (O2-bN): 2
interaction score (O3-bN): -2.11
interaction score (O9-bN): -1.9
interaction score (O4-bN): -0.922
interaction score (O13-bN): -1.14
interaction score (O7-bN): -1.34
interaction score (O8-bN): -0.836
interaction score (O6-bN): -1.45

DEIAALEAEIAALEAKNAALKAEIAALEG [Core_IINI-es_EEKE]
interaction score (Core_IINI-es_KKEK): 2.32

DENAALEAEIAALEAENAALEAKNAALKG [Core_NINN-es_EEEK]
interaction score (Core_NINN-es_KKKE): 2.16

DEIAALEAEIAALEAKNAALKAKIAALKG [Core_IINI-es_EEKK]
interaction score (Core_IINI-es_KKEE): 2.25

DENAALEAEIAALEAKIAALKAKNAALKG [Core_NIIN-es_EEKK]
interaction score (Core_NIIN-es_KKEE): 2.03

Source: paper PMC10397247
